# According to patent US20240108746A1 (Molecular Partners, published 2024):
# Positions count from the first letter of the chain named. Several values for one entry are separate records, joined by “and”; a condition that tells them apart may be missing. Identical values can stand only once.
# T1: Biotinylated CD3-specific binding domain SEQ ID NO: 14 (biotinylated (site not stated))
# T1 construct: Ligand on the neutravidin (NLC) SPR chip
# T1 chain: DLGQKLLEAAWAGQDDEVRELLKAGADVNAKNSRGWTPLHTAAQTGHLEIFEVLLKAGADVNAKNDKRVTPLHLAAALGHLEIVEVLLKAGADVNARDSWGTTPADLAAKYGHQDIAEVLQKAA
# T2: Biotinylated CD3-specific binding domain SEQ ID NO: 13 (biotinylated (site not stated))
# T2 construct: Ligand on the neutravidin (NLC) SPR chip; The same domain is the CD3-specific domain of TCE #1
# T2 chain: T1 chain with N65D, R68G, R97Q, Q114E
# T3: TCE #1
# T3 construct: also called T-cell engager; α-CD123×α-CD33×α-CD3 T-cell engager
# T3 chain: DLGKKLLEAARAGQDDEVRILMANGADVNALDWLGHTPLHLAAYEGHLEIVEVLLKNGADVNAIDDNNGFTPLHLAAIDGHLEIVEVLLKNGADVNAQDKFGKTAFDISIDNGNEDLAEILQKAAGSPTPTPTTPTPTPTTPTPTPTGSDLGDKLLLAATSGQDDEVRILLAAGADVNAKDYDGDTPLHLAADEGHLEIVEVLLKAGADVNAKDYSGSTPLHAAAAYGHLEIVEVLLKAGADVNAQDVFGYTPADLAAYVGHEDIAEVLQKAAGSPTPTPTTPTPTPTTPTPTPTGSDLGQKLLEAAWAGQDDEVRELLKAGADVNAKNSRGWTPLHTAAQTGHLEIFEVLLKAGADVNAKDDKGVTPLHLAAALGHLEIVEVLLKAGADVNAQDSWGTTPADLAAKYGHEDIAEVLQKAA
# T4: TCE #2
# T4 construct: also called α-HSA×α-CD123×α-CD33×α-CD3 T-cell engager; TCE (with a half-life extending moiety)
# T4 chain: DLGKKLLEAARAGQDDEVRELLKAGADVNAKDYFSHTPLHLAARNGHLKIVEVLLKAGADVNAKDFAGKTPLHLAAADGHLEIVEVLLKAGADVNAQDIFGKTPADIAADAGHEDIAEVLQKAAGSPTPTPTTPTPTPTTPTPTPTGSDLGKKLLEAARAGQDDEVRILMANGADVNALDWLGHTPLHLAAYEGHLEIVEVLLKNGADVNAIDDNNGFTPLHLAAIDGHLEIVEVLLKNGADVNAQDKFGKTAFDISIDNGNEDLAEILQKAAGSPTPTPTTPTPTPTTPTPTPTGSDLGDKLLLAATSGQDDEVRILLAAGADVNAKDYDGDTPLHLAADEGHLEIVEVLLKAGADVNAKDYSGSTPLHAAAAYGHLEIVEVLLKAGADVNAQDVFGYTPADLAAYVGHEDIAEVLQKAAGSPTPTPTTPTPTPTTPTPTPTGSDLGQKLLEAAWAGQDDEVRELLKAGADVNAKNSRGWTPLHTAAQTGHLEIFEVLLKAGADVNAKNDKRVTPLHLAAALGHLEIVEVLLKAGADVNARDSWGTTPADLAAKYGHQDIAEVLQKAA
# T5: CD3-specific binding domain (SEQ ID NO:11)
# T5 construct: Immobilized on beads in the sink chamber of the 'complex' Incucyte assay; also the first selection target; also called immobilized scavenger protein; bead-immobilized target protein
# T5 chain: T1 chain with E20I, K23A, Q114G
# B1: Binder #10 (designed binder)
# chain: MRGSHHHHHHGSDLGKKLLQAARAGQLDEVRELLKAGADVNAKDHYGWTPLHLAASEGHLEIVEVLLKAGADVNAKDWIGWTPLHLAASFGHLEIVEVLLKAGADVNAKDVSGKTPLHIAARQGHLEIVEVLLKAGADVNAQDKSGKTPADLAARAGHQDIAEVLQKAA
# B2: Binder #5 (designed binder)
# chain: B1 chain with L53I, S56Q, E57I, W81Y, F90H, I119V, R122A, Q123H
# B3: Binder #6 (designed binder)
# chain: B1 chain with H45Q, S56Y, E57S, I79V, F90H, V111E, S112A, K114R, R122K
# B4: Binder #7 (designed binder)
# chain: B1 chain with S56A, W81Y, L86I, F90H, V111S, R122Q, Q123H
# B5: Binder #8 (designed binder)
# chain: B1 chain with L53I, S56Q, E57R, I79L, L86V, F90H, V111L, K114R
# B6: Binder #9 (designed binder)
# chain: MRGSHHHHHHGSDLGKKLLQAARAGQLDEVRELLKAGADVNAKDHYGWTPLHLAASEGHLEIVEVLLKAGADVNAKDWIGWTPLHLAASFGHLEIVEVLLKAGADVNAKDVSGKTPLHIAARQGHLEIVEVLLKAGADVNAQDKSGKTPADLAARAGHQDIAEVLQLQKAA
# B7: Binder #2 (designed binder)
# chain: MRGSHHHHHHGSDLGKKLLQAARAGQLDEVRELLKAGADVNAKDFKGLTPLHLAAAHGHLEIVEVLLKAGADVNAKDVYGWTPLHWAAASGHLEIVEVLLKAGADVNAKDWLGITPLHLAASHGHLEIVEVLLKAGADVNAQDKSGKTPADLAARAGHQDIAEVLQKAA
# B8: Binder #1 (designed binder)
# chain: B7 chain with W86I
# notes: expressed in E. coli and purified by its His-tag
# B9: Binder #3 (designed binder)
# chain: B7 chain with S90K
# B10: Binder #4 (designed binder)
# chain: B7 chain with A56E, S90K
# Molecular target: T1, Biotinylated CD3-specific binding …
# Experiment: SPR (comparable assays)
row,Binder,binding result
1,B1,binds

# Molecular target: T2, Biotinylated CD3-specific binding …
# Experiment: SPR (comparable assays)
row,Binder,binding result
1,B1,binds

# Molecular target: T1, Biotinylated CD3-specific binding …
# Experiment: SPR (ProteOn XPR36), 33 C, multi-trace; biotinylated ligand on chip, binder as analyte
# Experimental: (§1) Further SPR data were generated for Binders #1 to #9 (as listed in Example 1 above), binding to biotinylated CD3-specific binding domains having SEQ ID NOs: 13 and 14, respectively, on the chip. […] The blocking half-life (T_{1/2}) was then calculated.
Binder,Kd [nM],koff [s⁻¹],kon [M⁻¹ s⁻¹]
B2,< 0.02,< 5e-05,–
B3,< 0.02,< 5e-05,–
B4,< 0.02,< 5e-05,–
B5,< 0.02,< 5e-05,–
B6,< 0.02,< 5e-05,–
B7,0.032,2e-05,630000
B8,0.034,2.7e-05,790000
B9,0.029,1.9e-05,650000
B10,0.019,1.2e-05,630000

# Molecular target: T2, Biotinylated CD3-specific binding …
# Experiment: as above
# Experimental: as §1
Binder,Kd [nM],koff [s⁻¹],kon [M⁻¹ s⁻¹]
B2,< 0.02,< 5e-05,–
B3,< 0.02,< 5e-05,–
B4,< 0.02,< 5e-05,–
B5,< 0.02,< 5e-05,–
B6,< 0.02,< 5e-05,–
B7,0.028,4e-05,1.43e+06
B8,0.04,6.2e-05,1.54e+06
B9,0.016,2.8e-05,1.7e+06
B10,0.011,1.9e-05,1.74e+06

# Molecular target: T1, Biotinylated CD3-specific binding …
# Experiment: calculated from SPR koff (ln2/koff)
# Experimental: as §1
row,Binder,Blocking T1/2 [h]
1,B2,> 3.9
2,B3,> 3.9
3,B4,> 3.9
4,B5,> 3.9
5,B6,> 3.9
6,B7,9.6
7,B8,7.1
8,B9,10.1
9,B10,16

# Molecular target: T2, Biotinylated CD3-specific binding …
# Experiment: calculated from SPR koff (ln2/koff)
# Experimental: as §1
row,Binder,Blocking T1/2 [h]
1,B2,> 3.9
2,B3,> 3.9
3,B4,> 3.9
4,B5,> 3.9
5,B6,> 3.9
6,B7,4.8
7,B8,3.1
8,B9,6.9
9,B10,10.1

# Molecular target: T3, TCE #1
# Experiment: not stated in the sentence (affinity quoted for the Incucyte experiment with TCE #1)
row,Binder,Kd [nM]
1,B2,≤ 0.006

# Molecular target: T4, TCE #2
# Experiment: not stated (affinity to the CD3 effector moiety of TCE #2)
row,Binder,Kd [nM]
1,B8,~0.04

# Molecular target: T3, TCE #1
# Experiment: cell-based or functional assay
row,Binder,"IC50, inhibition of TCE #1 (10 pM) mediated T-cell activation (CD25+ T-cells, % of CD8+, 48 h) [pM]"
1,B2,18.4
2,B6,83.8
3,B10,33.8

# Molecular target: T5, CD3-specific binding domain (SEQ ID …)
# Experiment: bead-immobilized scavenger protein in the sink chamber of the complex Incucyte assay
# Experimental: In the experiment described here, a TCE (TCE #1) was used as drug molecule.
# As in Example 4, a tumor cell line expressing the TAA was used as target cell line which has been transduced with Incucyte Nuclight Red Lentivirus for detection by the Incucyte® camera. PanT-cells were added, together with different prodrug complexes. […] Additionally, unbound TCE #1 (10 pM) as well as background (i.e. no prodrug complex or TCE, but with beads) served as controls. Tumor cell growth was measured for a period of 5 days by determining the area of red objects detected by the Incucyte® camera.
row,Binder,binding result
1,B6,binds

# Molecular target: T3, TCE #1
# Experiment: cell-based or functional assay
# Remark: another data set of the same source
row,Binder,"IC50, inhibition of TCE #1 (10 pM) mediated tumor cell killing (LDH release, OD492nm-620nm, 48 h) [pM]"
1,B2,16
2,B6,51.8
3,B10,26.3

# Molecular target: T4, TCE #2
# Experiment: not stated (affinity to the CD3 binding domain of TCE #2); Binder #10, 1 pM or lower
row,Binder,Kd [nM]
1,B1,≤ 0.001

# Molecular target: T4, TCE #2
# Experiment: not stated (affinity to the CD3 effector moiety of TCE #2); Binder #4, double-digit pM
row,Binder,Kd [nM]
1,B10,~0.02

# Molecular target: T3, TCE #1
# Experiment: cell-based or functional assay
# Remark: another data set of the same source
Binder,blocking of T-cell mediated tumor cell growth inhibition (simple Incucyte assay),inhibition of TCE activity (simple Incucyte assay),loss of inhibition of TCE activity (simple Incucyte assay),"inhibition of TCE activity (complex Incucyte assay, functional sink chamber with beads coated with CD3-specific binding domain)","inhibition of TCE activity (complex Incucyte assay, sink chamber with non-coated beads)"
B2,4 fold molar excess of binder over TCE,4 fold molar excess of binder over TCE,1 molar ratio binder:TCE,–,–
B6,–,1 molar ratio binder:TCE and 4 fold molar excess of binder over TCE,1 molar ratio binder:TCE,12.3 molar ratio binder:TCE,1.37 molar ratio binder:TCE
B10,–,–,4 fold molar excess of binder over TCE,–,–
